Data on 2 molecules can be found in patent publication US20030013152A1 (University of Texas, published 2003).

For test [1], the target named is T1, TFIIAα/β/γ: recombinant rat TFIIAα/β (p55) together with recombinant rat TFIIAγ (p12) (rat, UniProt O08949 1-377; O08950 1-109).
T1 construct: also called TFIIAα/β (p55) and TFIIAγ (p12)
T1 sequence (looked up) 1: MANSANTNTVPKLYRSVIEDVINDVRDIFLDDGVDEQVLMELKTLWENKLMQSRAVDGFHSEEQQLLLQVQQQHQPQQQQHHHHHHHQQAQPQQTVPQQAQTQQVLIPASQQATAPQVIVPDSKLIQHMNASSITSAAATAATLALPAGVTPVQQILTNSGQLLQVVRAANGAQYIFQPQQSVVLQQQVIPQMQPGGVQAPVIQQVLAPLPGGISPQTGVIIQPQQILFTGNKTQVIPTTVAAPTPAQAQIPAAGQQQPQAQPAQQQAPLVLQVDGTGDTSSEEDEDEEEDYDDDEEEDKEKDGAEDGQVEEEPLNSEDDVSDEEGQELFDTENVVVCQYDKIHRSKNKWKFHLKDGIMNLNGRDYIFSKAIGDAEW
T1 sequence (looked up) 2: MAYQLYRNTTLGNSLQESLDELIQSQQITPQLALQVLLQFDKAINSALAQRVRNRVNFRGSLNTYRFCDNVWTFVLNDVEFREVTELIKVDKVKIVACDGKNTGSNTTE
As to the kind of experiment: electrophoretic mobility shift assay on labelled AdML TATA oligonucleotide, under conditions in which TBP alone does not bind DNA. How it is done:
(§1) Mobility shift assays were performed using 10 fmol of a [γ-³²P] ATP kinase-labeled TATA-containing an oligonucleotide that spans nucleotides −40 to −16 of the Adenovirus Major Late (AdML) promoter. Binding reactions (25 μl final volume) were performed in 10 mM HEPES (pH 7.9), 2% (wt/vol) PEG-8000, 60 mM KCl, 5 mM DTT, 0.2 mM EDTA, 5 mM ammonium sulfate, 4 mM MgC1₂, and 8% glycerol. Recombinant rat p55 (30 ng; 29 nM), rat p12 (1.1 ug; 3.5 uM), human ALF (180 ng; 137 nM) and human TBP (125 ng; 133 nM) were added to reactions as indicated. Reactions were incubated for 30 minutes at room temperature, and complexes are separated on native 5% polyacrylamide gels containing 0.5×TBE and 5% glycerol. Competition experiments contain either cold AdML TATA or SP1 oligonucleotides, and antibody supershift reactions contain 2-4 μl of rabbit polyclonal antiserum raised against the 55 kD hTFIIAα/β polypeptide (3).
(§2) The activity of polypeptides was tested in electrophoretic mobility shift assays under conditions in which TATA-Binding Protein (TBP) alone is unable to bind DNA (FIG. 12B, lane 1). The presence of TFIIAα/β (p55) and TFIIAγ (p12) stabilized the TBP-DNA interaction via TFIIAα/β/γ-TBP-DNA complex formation (lane 2). Likewise, the recombinant ALF (p69) polypeptide, in conjunction with the TFIIAγ (p12) subunit, was able to form ALF/γ-TBP-DNA complexes (lane 5). […]

The target of test [2] is T2, ALF/γ: recombinant human ALF (p69) together with recombinant rat TFIIAγ (p12) (human; rat, UniProt O08950 1-109).
T2 construct: also called ALF (p69) and TFIIAγ (p12)
T2 sequence 1: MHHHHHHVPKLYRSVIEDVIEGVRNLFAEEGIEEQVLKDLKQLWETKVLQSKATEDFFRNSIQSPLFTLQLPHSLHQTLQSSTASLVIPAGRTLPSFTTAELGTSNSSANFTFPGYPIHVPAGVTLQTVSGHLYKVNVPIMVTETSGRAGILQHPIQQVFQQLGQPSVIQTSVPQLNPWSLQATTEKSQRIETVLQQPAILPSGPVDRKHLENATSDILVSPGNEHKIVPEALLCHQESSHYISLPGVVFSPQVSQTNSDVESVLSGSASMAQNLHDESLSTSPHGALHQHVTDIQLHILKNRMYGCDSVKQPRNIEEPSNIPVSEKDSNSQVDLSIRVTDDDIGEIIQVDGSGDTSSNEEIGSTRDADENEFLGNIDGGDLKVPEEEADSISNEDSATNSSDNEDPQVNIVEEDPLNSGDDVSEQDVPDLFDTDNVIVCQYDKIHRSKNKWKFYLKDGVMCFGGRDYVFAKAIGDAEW
T2 sequence 2: T1 sequence (looked up) 2
Described as above. How it is done: as §1, §2

The target in test [3] is T3, recombinant rat TFIIAα/β (p55) subunit (rat, UniProt O08949 1-377).
T3 construct: also called rat p55
T3 sequence (looked up): T1 sequence (looked up) 1
The test can be described thus: electrophoretic mobility shift assay; both subunits stand in one complex with TBP and DNA. The protocol:
as §1, §2
(In EMSA bound probe runs differently from free probe, usually more slowly.)

In test [4] the target is T4, recombinant histidine-tagged human ALF (TFIIAα/β-like factor) polypeptide, residues Val7 to Trp478 (human, UniProt Q9UNN4 7-478).
T4 construct: 479 amino acid polypeptide expressed in E. coli from pRSET-ALF, purified under denaturing conditions on Ni-NTA and renatured; migrates at 69 kD; also called p69; p69 (ALF)
T4 sequence: T2 sequence 1
The test is described as above. The protocol: as §1, §2

B1: recombinant histidine-tagged human TATA binding protein (TBP) (other, UniProt P20226 1-339, looked up)
chain: MDQNNSLPPYAQGLASPQGAMTPGIPIFSPMMPYGTGLTPQPIQNTNSLSILEEQQRQQQQQQQQQQQQQQQQQQQQQQQQQQQQQQQQQQQQQQAVAAAAVQQSTSQQATQGTSGQAPQLFHSQTLTTAPLPGTTPLYPSPMTPMTPITPATPASESSGIVPQLQNIVSTVNLGCKLDLKTIALRARNAEYNPKRFAAVIMRIREPRTTALIFSSGKMVCTGAKSEEQSRLAARKYARVVQKLGFPAKFLDFKIQNMVGSCDVKFPIRLEGLVLTHQQFSSYEPELFPGLIYRMIKPRIVLLIFVSGKVVLTGAKVRAEIYEAFENIYPILKGFRKTT
notes: In the mobility shift assay TBP stood together with a labelled AdML TATA oligonucleotide (-40 to -16); also called human TBP; not shown: histidine tag
As to B1, the binding result in test [1] and in test [2] was “binds” each time.

B2: recombinant rat TFIIAγ (p12) subunit (other, UniProt O08950 1-109, looked up)
chain: T1 sequence (looked up) 2
notes: also called rat p12; p12 (TFIIAγ)
In the case of B2, the binding result in test [3] and in test [4] was “binds” each time.
